The test deals with F-actin (rabbit skeletal muscle actin, polymerised) (rabbit, UniProt P68135 1-377). Description: co-sedimentation.

One molecule from article doi:10.1101/2025.06.13.659598 (bioRxiv, 2025) can be followed below.

B1: FHOD1 wild-type, full length (natural protein)
chain: MAGGEDRGDGEPVSVVTVRVQYLEDTDPFACANFPEPRRAPTCSLDGALPLGAQIPAVHRLLGAPLKLEDCALQVSPSGYYLDTELSLEEQREMLEGFYEEISKGRKPTLILRTQLSVRVNAILEKLYSSSGPELRRSLFSLKQIFQEDKDLVPEFVHSEGLSCLIRVGAAADHNYQSYILRALGQLMLFVDGMLGVVAHSDTIQWLYTLCASLSRLVVKTALKLLLVFVEYSENNAPLFIRAVNSVASTTGAPPWANLVSILEEKNGADPELLVYTVTLINKTLAALPDQDSFYDVTDALEQQGMEALVQRHLGTAGTDVDLRTQLVLYENALKLEDGDIEEAPGAGGRRERRKPSSEEGKRSRRSLEGGGCPARAPEPGPTGPASPVGPTSSTGPALLTGPASSPVGPPSGLQASVNLFPTISVAPSADTSSERSIYKARFLENVAAAETEKQVALAQGRAETLAGAMPNEAGGHPDARQLWDSPETAPAARTPQSPAPCVLLRAQRSLAPEPKEPLIPASPKAEPIWELPTRAPRLSIGDLDFSDLGEDEDQDMLNVESVEAGKDIPAPSPPLPLLSGVPPPPPLPPPPPIKGPFPPPPPLPLAAPLPHSVPDSSALPTKRKTVKLFWRELKLAGGHGVSASRFGPCATLWASLDPVSVDTARLEHLFESRAKEVLPSKKAGEGRRTMTTVLDPKRSNAINIGLTTLPPVHVIKAALLNFDEFAVSKDGIEKLLTMMPTEEERQKIEEAQLANPDIPLGPAENFLMTLASIGGLAARLQLWAFKLDYDSMEREIAEPLFDLKVGMEQLVQNATFRCILATLLAVGNFLNGSQSSGFELSYLEKVSEVKDTVRRQSLLHHLCSLVLQTRPESSDLYSEIPALTRCAKVDFEQLTENLGQLERRSRAAEESLRSLAKHELAPALRARLTHFLDQCARRVAMLRIVHRRVCNRFHAFLLYLGYTPQAAREVRIMQFCHTLREFALEYRTCRERVLQQQQKQATYRERNKTRGRMITETEKFSGVAGEAPSNPSVPVAVSSGPGRGDADSHASMKSLLTSRPEDTTHNRRSRGMVQSSSPIMPTVGPSTASPEEPPGSSLPSDTSDEIMDLLVQSVTKSSPRALAARERKRSRGNRKSLRRTLKSGLGDDLVQALGLSKGPGLEV
As for B1, the binding result is given as “binds”.
